The values below are quoted from earlier work in PMC12786138.

Several values for one entry are separate records, joined by “and”; a condition that tells them apart may be missing. Equal entries are not always repeated.

Data set [1] concerns the target SIRPα (Homo sapiens) (UniProt P78324). The data set is described as follows: SPR. A general note: SPR reads the build-up and loss of mass on a sensor chip optically.
In the next data set the target is SIRPα (Mus musculus) (UniProt P97797). Briefly: SPR.
Data set [2] addresses SIRPα (Homo sapiens) (UniProt P78324). The data set is described as follows: colorimetric.
The target of another data set is CD47 (Homo sapiens) (UniProt Q08722). The data set is described as follows: radiolabel competition.
Sequence of CD47 (Homo sapiens) (Q08722 19-323): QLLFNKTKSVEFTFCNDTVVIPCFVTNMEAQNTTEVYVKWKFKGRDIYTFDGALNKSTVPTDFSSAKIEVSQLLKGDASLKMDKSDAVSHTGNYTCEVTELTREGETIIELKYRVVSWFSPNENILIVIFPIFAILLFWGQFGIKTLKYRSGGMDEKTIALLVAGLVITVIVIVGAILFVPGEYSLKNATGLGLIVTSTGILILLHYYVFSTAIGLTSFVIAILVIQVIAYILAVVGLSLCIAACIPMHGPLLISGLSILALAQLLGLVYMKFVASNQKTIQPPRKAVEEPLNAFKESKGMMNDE

Sequence of SIRPα (Homo sapiens) (P78324 31-373): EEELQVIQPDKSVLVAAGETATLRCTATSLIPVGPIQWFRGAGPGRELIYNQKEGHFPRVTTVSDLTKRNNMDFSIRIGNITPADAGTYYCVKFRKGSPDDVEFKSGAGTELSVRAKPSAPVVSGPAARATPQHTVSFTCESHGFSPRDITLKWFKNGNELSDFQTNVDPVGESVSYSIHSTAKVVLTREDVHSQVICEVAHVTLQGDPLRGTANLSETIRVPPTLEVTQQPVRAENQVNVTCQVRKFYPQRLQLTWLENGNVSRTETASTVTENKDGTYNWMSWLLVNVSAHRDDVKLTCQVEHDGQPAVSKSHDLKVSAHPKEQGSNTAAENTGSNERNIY
Sequence of CD47 ECD (from UniProt Q08722) (Q08722 19-323): as the sequence (Q08722 19-323) above
Sequence of SIRPα (Mus musculus) (P97797 32-373): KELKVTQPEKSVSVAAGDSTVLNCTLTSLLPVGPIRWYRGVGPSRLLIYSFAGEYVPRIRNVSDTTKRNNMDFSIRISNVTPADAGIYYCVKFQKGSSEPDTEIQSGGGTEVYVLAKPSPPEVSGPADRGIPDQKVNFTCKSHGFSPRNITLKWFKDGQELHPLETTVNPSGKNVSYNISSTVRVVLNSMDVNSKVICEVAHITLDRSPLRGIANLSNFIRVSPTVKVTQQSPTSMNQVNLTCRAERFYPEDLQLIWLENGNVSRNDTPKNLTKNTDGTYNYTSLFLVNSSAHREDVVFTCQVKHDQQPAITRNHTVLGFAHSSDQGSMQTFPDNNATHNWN
Sequence of CD47 ECD (from UniProt Q61735) (Q61735 19-303): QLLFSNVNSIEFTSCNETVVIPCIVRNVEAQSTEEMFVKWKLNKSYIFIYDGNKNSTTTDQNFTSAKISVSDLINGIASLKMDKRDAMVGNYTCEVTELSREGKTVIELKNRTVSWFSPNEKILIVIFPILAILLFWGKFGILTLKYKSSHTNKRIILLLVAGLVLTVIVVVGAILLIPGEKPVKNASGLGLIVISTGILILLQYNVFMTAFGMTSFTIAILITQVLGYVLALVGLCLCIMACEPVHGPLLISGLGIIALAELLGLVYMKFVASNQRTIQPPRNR
Sequence of TSP1 (P07996 19-1170): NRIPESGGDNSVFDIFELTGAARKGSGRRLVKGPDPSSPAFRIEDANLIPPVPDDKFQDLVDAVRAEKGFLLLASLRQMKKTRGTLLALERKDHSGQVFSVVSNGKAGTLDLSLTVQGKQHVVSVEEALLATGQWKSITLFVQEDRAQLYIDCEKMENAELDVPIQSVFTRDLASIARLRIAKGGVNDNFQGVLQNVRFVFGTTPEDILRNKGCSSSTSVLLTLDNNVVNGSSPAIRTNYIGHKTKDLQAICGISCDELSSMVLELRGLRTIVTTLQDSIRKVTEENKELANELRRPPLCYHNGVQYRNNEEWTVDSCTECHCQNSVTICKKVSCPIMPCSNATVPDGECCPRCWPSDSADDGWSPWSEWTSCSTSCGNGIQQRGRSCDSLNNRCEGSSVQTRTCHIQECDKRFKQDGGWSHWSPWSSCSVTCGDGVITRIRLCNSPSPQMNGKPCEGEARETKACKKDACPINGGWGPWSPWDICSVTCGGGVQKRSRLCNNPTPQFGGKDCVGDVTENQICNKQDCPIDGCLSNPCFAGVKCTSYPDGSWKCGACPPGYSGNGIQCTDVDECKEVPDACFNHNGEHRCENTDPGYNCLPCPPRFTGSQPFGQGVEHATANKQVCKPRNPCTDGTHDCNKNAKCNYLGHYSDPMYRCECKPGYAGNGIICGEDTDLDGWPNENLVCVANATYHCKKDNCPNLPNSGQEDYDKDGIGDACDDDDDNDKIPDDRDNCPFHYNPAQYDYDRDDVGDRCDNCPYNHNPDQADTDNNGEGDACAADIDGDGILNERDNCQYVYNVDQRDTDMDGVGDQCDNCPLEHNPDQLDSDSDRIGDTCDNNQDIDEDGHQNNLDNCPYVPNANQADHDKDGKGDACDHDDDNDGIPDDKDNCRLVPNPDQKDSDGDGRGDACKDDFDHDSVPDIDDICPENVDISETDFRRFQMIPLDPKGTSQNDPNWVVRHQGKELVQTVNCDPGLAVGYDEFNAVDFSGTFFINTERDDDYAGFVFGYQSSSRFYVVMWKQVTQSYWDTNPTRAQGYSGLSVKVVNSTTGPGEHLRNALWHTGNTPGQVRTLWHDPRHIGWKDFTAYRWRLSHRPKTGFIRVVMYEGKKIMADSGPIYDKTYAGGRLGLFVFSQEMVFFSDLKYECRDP
Sequence of CD47 ECD-alkaline phosphatase ECD (Q08722 19-323): as the sequence (Q08722 19-323) above

One may read the Kd as a measure of binding affinity in units of concentration. Turning to CD47 ECD (from UniProt Q08722), the equilibrium dissociation constant (Kd) with SIRPα (Homo sapiens) [1] was 1200 nM and 1000 nM and 200 nM; with SIRPα (Mus musculus), 80 nM.
Turning to CD47 ECD (from UniProt Q61735), the dissociation constant Kd in the data set with SIRPα (Homo sapiens) [1] was above 30000 nM; with SIRPα (Mus musculus), 4700 nM.
On to “CD47 ECD-alkaline phosphatase ECD (from UniProt Q08722)”, for which the Kd with SIRPα (Homo sapiens) [2] is 10 nM.
Regarding TSP1 (from UniProt P07996), the Kd in the data set with CD47 (Homo sapiens) is 0.012 nM.
